Experiment [1] concerns the target T1, 293 mCMG2 (mouse, UniProt Q6DFX2).
T1 construct: expressed on human embryonic kidney 293 cells; also called mouse CMG2; mouse ANTXR2 expressed on 293 cells
The experiment is described as follows: flow cytometry (FACS), 293 cells expressing mCMG2 against parental 293. For orientation: Flow cytometry measures light scatter and fluorescence of single cells or particles in a stream.

Experiment [2] concerns the target T2, human CMG2 (hCMG2) expressed on CHO or 293 cells (human, UniProt P58335 34-489).
T2 construct: whole, on cells; also called ANTXR2
As to the kind of experiment: flow cytometry (FACS), CHO cells expressing hCMG2 against parental CHO.

Experiment [3] has as its target T3, recombinant human TEM8 ectodomain (human, UniProt Q9H6X2 33-321).
T3 construct: also called TEM8-ED; Tumor Endothelial Marker 8
T3 sequence: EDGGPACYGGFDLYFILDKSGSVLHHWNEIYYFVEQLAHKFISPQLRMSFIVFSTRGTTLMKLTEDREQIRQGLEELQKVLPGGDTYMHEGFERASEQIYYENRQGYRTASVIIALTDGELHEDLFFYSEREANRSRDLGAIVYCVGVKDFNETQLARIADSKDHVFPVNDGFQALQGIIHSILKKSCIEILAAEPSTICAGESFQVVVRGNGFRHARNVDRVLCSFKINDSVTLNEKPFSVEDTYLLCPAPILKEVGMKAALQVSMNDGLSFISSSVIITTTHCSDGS
As to the kind of experiment: SPR (Biacore), antibody in IgG1 format, recombinant human TEM8 ectodomain; apparent KD. Background: In SPR one partner is held on a chip, and binding of the other changes the refractive index at the surface.

Experiment [4] has as its target recombinant TEM8 (AP-TEM8). As to the kind of experiment: ELISA-type titration of m825-MMAE on recombinant AP-TEM8; absorbance at 450 nm against Log (ng/well).

Positions count from the first letter of the chain named.

T1 sequence (Q6DFX2 32-487 limits assumed): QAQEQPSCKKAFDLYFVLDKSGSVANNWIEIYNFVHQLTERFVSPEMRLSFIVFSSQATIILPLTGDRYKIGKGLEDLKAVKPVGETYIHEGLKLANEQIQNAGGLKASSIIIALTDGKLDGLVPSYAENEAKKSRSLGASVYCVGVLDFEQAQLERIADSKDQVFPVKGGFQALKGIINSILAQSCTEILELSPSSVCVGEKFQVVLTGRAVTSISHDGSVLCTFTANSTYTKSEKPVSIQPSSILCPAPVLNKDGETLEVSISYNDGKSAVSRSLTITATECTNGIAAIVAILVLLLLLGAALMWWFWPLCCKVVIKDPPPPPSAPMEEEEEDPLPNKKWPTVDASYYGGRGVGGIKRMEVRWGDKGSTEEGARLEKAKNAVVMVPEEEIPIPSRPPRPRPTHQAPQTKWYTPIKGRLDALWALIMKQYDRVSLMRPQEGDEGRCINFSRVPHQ
T2 sequence (P58335 34-489): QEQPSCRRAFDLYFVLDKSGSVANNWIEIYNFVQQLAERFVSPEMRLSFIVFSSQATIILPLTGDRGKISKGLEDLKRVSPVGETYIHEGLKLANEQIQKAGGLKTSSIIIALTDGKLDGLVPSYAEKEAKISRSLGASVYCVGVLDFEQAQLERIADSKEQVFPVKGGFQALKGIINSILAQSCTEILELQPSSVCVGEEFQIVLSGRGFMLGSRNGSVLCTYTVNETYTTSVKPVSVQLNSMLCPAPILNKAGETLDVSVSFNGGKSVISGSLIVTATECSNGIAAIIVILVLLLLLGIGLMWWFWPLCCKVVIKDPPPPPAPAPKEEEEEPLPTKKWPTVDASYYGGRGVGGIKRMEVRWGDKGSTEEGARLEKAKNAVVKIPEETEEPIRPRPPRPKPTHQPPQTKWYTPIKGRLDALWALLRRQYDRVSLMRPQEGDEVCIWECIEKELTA

B1: m830 antibody in human IgG1 format (antibody, V domains shown)
VH: EVQLVESGGGVVQPGRSVRLSCAASGFTFSTYTMHWVRQAPGKGLEWVAIISNDGSNKYYADPVRGRFTISRDNSKNTLYLQMNSLRAEDTAVYYCVRGSSWYRGNWFDPWGQGTLVTVSS
VL: DIQMTQSPSSLSASVGDRVTIACRASQTISRYLNWYQQKPGKAPKLLIYAASSLQSGVSSRFSGSGSGTEFTLTISSLQPEDFATYFCQQTYSPPITFGQGTRLEIKR
notes: also called m830 mAb; human m830-IgG1
Turning to B1, the binding result in experiment [1] and in experiment [2] was “no binding” each time. Also, the Kd in experiment [3] came out at 12 nM.

B2: m863 antibody in human IgG1 format (antibody, V domains shown)
VH: EVQLVETGAEVKKPGASVKVSCKASGYTFTGYYMHWVRQAPGQGLEWMGWINPTSGSTNYAQKFQGRVTMTRDTSISTAYMELSGLRSDDTAVYYCVRDPGSPKWLAFDPWGQGTLVTVSS
VL: B1 VL with M4L, A22T, Q27R, T28A
notes: also called m863 mAb
On to B2, for which the binding result in experiment [1] and in experiment [2] was “no binding” throughout. Also, the Kd in experiment [3] stood at 1.2 nM.

B3: m825-MMAE conjugate (m825 antibody in human IgG1 format conjugated to MMAE) (other)
VH: QVQLVQSGAEVKKPGTSVKVSCKVPGYTFSSYAISWVRQAPGQGLEWMGGIIPIFGTTNYAQKFQGRVTITGEESTSTVYMELSSLRSEDTAVYYCARDTDYMFDYWGQGTLVTVSS
VL: SSELTQDPVVSVALGETVSITCQGDNLRDFYASWYQQKPGQAPLLVMYGKNRRPSGIPDRFSGSTSGNTLSLTITGAQAEDEADYYCSSRDNSKHVVFGGGTKVTVL
modifications: MMAE with stretcher unit, Val-Cit peptide cleavage site and spacer, attached to thiol groups formed by partial reduction of inter-chain disulfide bonds (positions not stated)
notes: also called anti-TEM8-MMAE
With B3, the “EC50 (read off the curve)” value in experiment [4] was ~0.5 ng/well.

B4: m825 antibody in human IgG1 format (antibody, V domains shown)
VH: B3 VH
VL: B3 VL
notes: also called m825 mAb; human m825-IgG1
In the case of B4, the Kd in experiment [3] is 0.034 nM.

B5: m822 antibody in human IgG1 format (antibody, V domains shown)
VH: B3 VH with T16A, P25S, T58A, G72A, E73D, V79A
VL: B3 VL
notes: also called m822 mAb
Turning to B5, the Kd in experiment [3] was 35 nM.

These data come from patent US20160264662A1 (US Dept. of Health and Human Services, published 2016).
